Assay [1] deals with T1, rHuman P-Cadherin/Fc Chimera, CF (R&D Systems Cat#861-PC) (human, UniProt P22223 108-654).
T1 construct: Bought protein; not shown: Fc of the bought chimera
As to the kind of experiment: ECL (MSD multi-spot) titration, Fab at 0.2975 uM; blank spot 5019.

Assay [2] has as its target T2, rHuman IGF-1 sR, CF (R&D Systems Cat#391-GR) (human, UniProt P08069 31-932).
T2 construct: Bought soluble receptor; also called insulin-like growth factor-1 soluble receptor; IGF-R1
The assay is described as above.

In assay [3] the target is T3, rHuman Erythropoietin R/Fc Chimera, CF (R&D Systems Cat#963-ER) (human, UniProt P19235 25-250).
T3 construct: Bought protein; also called EPO R/Fc; EPOR; not shown: Fc of the bought chimera
T3 sequence: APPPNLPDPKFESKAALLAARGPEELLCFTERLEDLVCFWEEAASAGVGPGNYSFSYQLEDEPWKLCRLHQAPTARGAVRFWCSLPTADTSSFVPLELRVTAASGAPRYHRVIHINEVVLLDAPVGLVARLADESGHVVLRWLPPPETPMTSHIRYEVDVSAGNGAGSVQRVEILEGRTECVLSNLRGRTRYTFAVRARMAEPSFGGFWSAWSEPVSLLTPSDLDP
Described as above.

Assay [4] concerns the target T4, rHuman Notch-1/Fc Chimera, CF (R&D Systems Cat#3647-TK) (human, UniProt P46531 19-526).
T4 construct: Bought protein; not shown: Fc of the bought chimera
The description is as above.

Assay [5] deals with T5, Recombinant Human DLL4 (R&D Systems Cat#1506-D4/CF) (human, UniProt Q9NR61 27-524).
T5 construct: Bought protein; also called delta-like protein 4
Described as above.

Assay [6] concerns the target T6, rHuman EGF R/Fc Chimera, CF (R&D Systems Cat#344-ER) (human, UniProt P00533 25-645).
T6 construct: Bought protein; also called epidermal growth factor receptor; not shown: Fc of the bought chimera
Described as above.

Assay [7] deals with T1, rHuman P-Cadherin/Fc Chimera, CF (R&D …). As to the kind of experiment: ECL (MSD multi-spot) titration, Fab at 0.07438 uM; blank spot 2504.
Assay [8] concerns the target T2, rHuman IGF-1 sR, CF (R&D Systems …). Described as above.
The target of assay [9] is T3, rHuman Erythropoietin R/Fc Chimera, CF …. The description is as above.
Assay [10] deals with T4, rHuman Notch-1/Fc Chimera, CF (R&D …). Described as above.
The target in assay [11] is T5, Recombinant Human DLL4 (R&D Systems …). The description is as above.
The target in assay [12] is T6, rHuman EGF R/Fc Chimera, CF (R&D …). Described as above.
The target in assay [13] is T1, rHuman P-Cadherin/Fc Chimera, CF (R&D …). As to the kind of experiment: ECL (MSD multi-spot) titration, Fab at 1.19 uM; blank spot 24999.
In assay [14] the target is T2, rHuman IGF-1 sR, CF (R&D Systems …). The assay is described as above.
The target in assay [15] is T3, rHuman Erythropoietin R/Fc Chimera, CF …. The assay is described as above.
The target of assay [16] is T4, rHuman Notch-1/Fc Chimera, CF (R&D …). Described as above.
Assay [17] addresses T5, Recombinant Human DLL4 (R&D Systems …). Described as above.
Assay [18] deals with T6, rHuman EGF R/Fc Chimera, CF (R&D …). The description is as above.
The target in assay [19] is T1, rHuman P-Cadherin/Fc Chimera, CF (R&D …). As to the kind of experiment: ECL (MSD multi-spot) titration, Fab at 0.01859 uM; blank spot 1776.
Assay [20] has as its target T2, rHuman IGF-1 sR, CF (R&D Systems …). Described as above.
Assay [21] concerns the target T3, rHuman Erythropoietin R/Fc Chimera, CF …. The description is as above.
For assay [22], the target named is T4, rHuman Notch-1/Fc Chimera, CF (R&D …). Described as above.
The target in assay [23] is T5, Recombinant Human DLL4 (R&D Systems …). The assay is described as above.
For assay [24], the target named is T6, rHuman EGF R/Fc Chimera, CF (R&D …). The description is as above.
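Further: blank spot per well as comparator with Hit at signal to blank ratio of 4 or more.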

B1: Fab VH1-46_IGHD6-13*01_IGHJ4*01 & L2_IGKJ1*01 (Fab, V domains shown)
VH: QVQLVQSGAEVKKPGASVKVSCKASGYTFTSYYMHWVRQAPGQGLEWMGIINPSGGSTSYAQKFQGRVTMTRDTSTSTVYMELSSLRSEDTAVYYCAREGYSSSWYDYFDYWGQGTLVTVSS
VL: not shown
notes: also called Fab No. 7
B1: the ECL signal was 26000 in assay [1]; 17400 in assay [2]; 167000 in assay [3]; 37500 in [4]; 34700 in [5]; 42200 in assay [6]. Besides, the ECL signal amounted to 14800 in assay [7]; 5800 in assay [8]; 154000 in [9]; 22000 in assay [10]; 20700 in assay [11]; 16600 in [12]. Further, the ECL signal turned out to be 69700 in [13]; 35200 in [14]; 193000 in assay [15]; 72000 in assay [16]; 74900 in assay [17]; 62500 in [18]. Moreover, the ECL signal in assay [19] turned out to be 11700; in assay [20] it was 3780; in assay [21] it was 188000; in [22], 17600; in [23], 18900; in assay [24], 11800.
